From the supplement of paper PMC9112550, “Optimization of the antimicrobial peptide Bac7 by deep mutational scanning” (BMC Biology, 2022)

Test system: Escherichia coli TOP10
Experiment: shrunken log2 fold change of peptide-encoding DNA abundance (4.5 h post-induction vs induction); higher = less antimicrobial activity (less host growth inhibition)
Conditions: time post-induction: 4.5 h; library: site-saturation at positions 5, 18, 19, 20
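Also: peptides expressed intracellularly from a pBAD plasmid library in pooled LB shake-flask culture, induced with 0.3% L-arabinose, DNA abundance read by NGS, three biological replicates, DESeq2 with apeglm shrinkage.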

| Sequence | shrunken log2 fold change |
| --- | --- |
| RRIRMRPPRLPRPRPRPDMLPRP | 0.0647 |
| RRIRSRPPRLPRPRPRPKDVPRP | -0.162 |
| RRIRPRPPRLPRPRPRPGWEPRP | 0.462 |
| RRIRGRPPRLPRPRPRPMRNPRP | 1.09 |
| RRIRCRPPRLPRPRPRPVDGPRP | 0.0228 |
| RRIRCRPPRLPRPRPRPDQYPRP | -0.277 |
| RRIRLRPPRLPRPRPRPLDDPRP | -0.144 |
| RRIRWRPPRLPRPRPRPSSWPRP | 0.0927 |
| RRIRARPPRLPRPRPRPVEAPRP | 0.365 |
| RRIRARPPRLPRPRPRPLYFPRP | -0.282 |
| RRIRERPPRLPRPRPRPWKAPRP | 0.0158 |
| RRIRWRPPRLPRPRPRPSWKPRP | -0.0536 |
| RRIRGRPPRLPRPRPRPNHQPRP | 0.0643 |
| RRIRMRPPRLPRPRPRPLGEPRP | 0.317 |
| RRIRTRPPRLPRPRPRPTAFPRP | 0.13 |
| RRIRMRPPRLPRPRPRPDLKPRP | 0.751 |
| RRIRSRPPRLPRPRPRPSLFPRP | 0.0853 |
| RRIRNRPPRLPRPRPRPKRGPRP | 0.00668 |
| RRIRHRPPRLPRPRPRPISIPRP | 0.0201 |
| RRIRSRPPRLPRPRPRPIATPRP | 0.344 |
| RRIRQRPPRLPRPRPRPRARPRP | 0.579 |
| RRIRGRPPRLPRPRPRPGMDPRP | 1.06 |
| RRIRERPPRLPRPRPRPMCWPRP | 0.451 |
| RRIRMRPPRLPRPRPRPCLIPRP | -0.0342 |
| RRIRPRPPRLPRPRPRPNTYPRP | -0.67 |

| Sequence | shrunken log2 fold change |
| --- | --- |
| RRIRTRPPRLPRPRPRPRSAPRP | 0.0929 |
| RRIRPRPPRLPRPRPRPEKFPRP | -0.181 |
| RRIRDRPPRLPRPRPRPFTRPRP | -0.242 |
| RRIRPRPPRLPRPRPRPNKWPRP | -0.232 |
| RRIRDRPPRLPRPRPRPKHHPRP | -0.272 |
| RRIRVRPPRLPRPRPRPCLSPRP | -0.153 |
| RRIRFRPPRLPRPRPRPHWDPRP | -0.21 |
| RRIRRRPPRLPRPRPRPDMHPRP | -0.203 |
| RRIRNRPPRLPRPRPRPATHPRP | 0.224 |
| RRIRHRPPRLPRPRPRPKMCPRP | -0.00195 |
| RRIRTRPPRLPRPRPRPEMMPRP | -0.0411 |
| RRIRRRPPRLPRPRPRPRAPPRP | 1.02 |
| RRIRLRPPRLPRPRPRPERVPRP | 0.0357 |
| RRIRDRPPRLPRPRPRPIGNPRP | 0.279 |
| RRIRCRPPRLPRPRPRPNSNPRP | -0.698 |
| RRIRHRPPRLPRPRPRPWYCPRP | -0.0324 |
| RRIRARPPRLPRPRPRPSDLPRP | -0.073 |
| RRIRYRPPRLPRPRPRPCSFPRP | -0.0048 |
| RRIRGRPPRLPRPRPRPIKNPRP | 0.488 |
| RRIRWRPPRLPRPRPRPGNCPRP | -0.0763 |
| RRIRVRPPRLPRPRPRPTGAPRP | 0.47 |
| RRIRYRPPRLPRPRPRPSWWPRP | -0.511 |
| RRIRNRPPRLPRPRPRPRGYPRP | -0.846 |
| RRIRIRPPRLPRPRPRPVPSPRP | -0.217 |
| RRIRMRPPRLPRPRPRPCWMPRP | 0.114 |

| Sequence | shrunken log2 fold change |
| --- | --- |
| RRIRPRPPRLPRPRPRPVIGPRP | 0.0389 |
| RRIRSRPPRLPRPRPRPMNWPRP | -0.0283 |
| RRIRLRPPRLPRPRPRPDWGPRP | 0.222 |
| RRIRNRPPRLPRPRPRPPEFPRP | -0.144 |
| RRIRQRPPRLPRPRPRPEYRPRP | 0.0706 |
| RRIRCRPPRLPRPRPRPYWEPRP | -0.388 |
| RRIRQRPPRLPRPRPRPTQHPRP | 0.195 |
| RRIRARPPRLPRPRPRPSIIPRP | -0.254 |
| RRIRLRPPRLPRPRPRPRGPPRP | 0.865 |
| RRIRWRPPRLPRPRPRPQLDPRP | 0.0393 |
| RRIRGRPPRLPRPRPRPFECPRP | 0.0132 |
| RRIRARPPRLPRPRPRPHDTPRP | 0.111 |
| RRIRNRPPRLPRPRPRPYMNPRP | -0.207 |
| RRIRHRPPRLPRPRPRPYKQPRP | -0.0238 |
| RRIRNRPPRLPRPRPRPNRMPRP | -0.385 |
| RRIRMRPPRLPRPRPRPWQVPRP | -0.0506 |
| RRIRFRPPRLPRPRPRPPQNPRP | 0.536 |
| RRIRNRPPRLPRPRPRPDSLPRP | 0.0321 |
| RRIRARPPRLPRPRPRPSIVPRP | -0.103 |
| RRIRIRPPRLPRPRPRPNHHPRP | -0.868 |
| RRIRKRPPRLPRPRPRPNQSPRP | 0.341 |
| RRIRYRPPRLPRPRPRPMVYPRP | -0.00783 |
| RRIRMRPPRLPRPRPRPDWKPRP | 0.0125 |
| RRIRVRPPRLPRPRPRPNGPPRP | 0.144 |
| RRIRHRPPRLPRPRPRPVFDPRP | -0.0994 |
